# Assay results as given in PMC9652393, “Differential impact of ubiquitous and muscle dynamin 2 isoforms in muscle physiology and centronuclear myopathy” (Nature Communications, 2022).
# B1: Human SH3 domain of BIN1 with Glutathione S-transferase (GST) tag (domain or fragment, UniProt O00499 520-593, looked up)
# chain: GFMFKVQAQHDYTATDTDELQLKAGDVVLVIPFQNPEEQDEGWLMGVKESDWNQHKELEKCRGVFPENFTERVP
# notes: amphiphysin 2 (BIN1), human, SH3 domain; The methods also describe cutting off the GST tag with PreScission on the beads; also called GST-SH3; GST-SH3 of BIN1
# B2: Human ubiquitous dynamin 2 isoform (Ub-DNM2), recombinant (natural protein, UniProt P50570-2 1-866, looked up)
# chain: MGNRGMEELIPLVNKLQDAFSSIGQSCHLDLPQIAVVGGQSAGKSSVLENFVGRDFLPRGSGIVTRRPLILQLIFSKTEHAEFLHCKSKKFTDFDEVRQEIEAETDRVTGTNKGISPVPINLRVYSPHVLNLTLIDLPGITKVPVGDQPPDIEYQIKDMILQFISRESSLILAVTPANMDLANSDALKLAKEVDPQGLRTIGVITKLDLMDEGTDARDVLENKLLPLRRGYIGVVNRSQKDIEGKKDIRAALAAERKFFLSHPAYRHMADRMGTPHLQKTLNQQLTNHIRESLPALRSKLQSQLLSLEKEVEEYKNFRPDDPTRKTKALLQMVQQFGVDFEKRIEGSGDQVDTLELSGGARINRIFHERFPFELVKMEFDEKDLRREISYAIKNIHGVRTGLFTPDLAFEAIVKKQVVKLKEPCLKCVDLVIQELINTVRQCTSKLSSYPRLREETERIVTTYIREREGRTKDQILLLIDIEQSYINTNHEDFIGFANAQQRSTQLNKKRAIPNQVIRRGWLTINNISLMKGGSKEYWFVLTAESLSWYKDEEEKEKKYMLPLDNLKIRDVEKGFMSNKHVFAIFNTEQRNVYKDLRQIELACDSQEDVDSWKASFLRAGVYPEKDQAENEDGAQENTFSMDPQLERQVETIRNLVDSYVAIINKSIRDLMPKTIMHLMINNTKAFIHHELLAYLYSSADQSSLMEESADQAQRRDDMLRMYHALKEALNIIGDISTSTVSTPVPPPVDDTWLQSASSHSPTPQRRPVSSIHPPGRPPAVRGPTPGPPLIPVPVGAAASFSAPPIPSRPGPQSVFANSDLFPAPPQIPSRPVRIPPGIPPGVPSRRPPAAPSRPTIIRPAEPSLLD
# notes: dynamin 2 (DNM2), human, ubiquitous isoform; same variant of exon 10 as the M-DNM2 plasmid; No tag is stated for the pVL1392 constructs; also called WT Ub-DNM2
# Legend:
# [1] = target: B2; experiment: pull-down; GST-SH3 of BIN1 (0.16, 0.4 or 1.6 ml supernatant) bound to GSH-Sepharose overnight, washed with 300 mM NaCl, 50 mM Tris pH 8.0, 5 mM imidazole, 1 mM DTT; 0.07 mg purified M-DNM2 or Ub-DNM2 added for 20 min, washed; resin loaded on SDS-PAGE; conditions: both partners purified
# [2] = target: the molecule itself; experiment: SEC-MALS; Superose 6 10/300 GL; 20 mM HEPES pH 7.4, 1.5 M NaCl, 1 mM EGTA, 1 mM DTT, 5% glycerol; 4 °C, 0.5 ml/min
binding result [1],Binder,binding result [2]
binds,B1,
,B2,binds
